Results reported in the supplement of paper PMC9112550, “Optimization of the antimicrobial peptide Bac7 by deep mutational scanning” (BMC Biology, 2022).

Tested on: Escherichia coli TOP10
Assay: shrunken log2 fold change of peptide-encoding DNA abundance (4.5 h post-induction vs induction); higher = less antimicrobial activity (less host growth inhibition)
Conditions: time post-induction: 4.5 h; library: site-saturation at positions 5, 18, 19, 20
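Also: peptides expressed intracellularly from a pBAD plasmid library in pooled LB shake-flask culture, induced with 0.3% L-arabinose, DNA abundance read by NGS, three biological replicates, DESeq2 with apeglm shrinkage.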

Row | Sequence | shrunken log2 fold change
1 | RRIRIRPPRLPRPRPRPVAPPRP | 0.244
2 | RRIRARPPRLPRPRPRPEQPPRP | 0.343
3 | RRIRNRPPRLPRPRPRPHNYPRP | -0.968
4 | RRIRQRPPRLPRPRPRPGDVPRP | -0.222
5 | RRIRTRPPRLPRPRPRPMVWPRP | 0.57
6 | RRIRERPPRLPRPRPRPVFNPRP | -0.329
7 | RRIRVRPPRLPRPRPRPHHEPRP | -0.582
8 | RRIRLRPPRLPRPRPRPHPEPRP | 0.0233
9 | RRIRMRPPRLPRPRPRPQHRPRP | 0.0767
10 | RRIRQRPPRLPRPRPRPHVMPRP | -0.444
11 | RRIRERPPRLPRPRPRPIYAPRP | -0.086
12 | RRIRRRPPRLPRPRPRPSKHPRP | -0.196
13 | RRIRVRPPRLPRPRPRPAYNPRP | -0.394
14 | RRIRKRPPRLPRPRPRPFNHPRP | -0.993
15 | RRIRKRPPRLPRPRPRPYPAPRP | 0.289
16 | RRIRPRPPRLPRPRPRPVKTPRP | 0.0289
17 | RRIRGRPPRLPRPRPRPHWCPRP | 0.00693
18 | RRIRIRPPRLPRPRPRPSYHPRP | -0.933
19 | RRIRMRPPRLPRPRPRPKFRPRP | 0.169
20 | RRIRNRPPRLPRPRPRPWECPRP | -0.00145
21 | RRIRMRPPRLPRPRPRPMSSPRP | 0.0418
22 | RRIRRRPPRLPRPRPRPCVQPRP | 0.171
23 | RRIRVRPPRLPRPRPRPKMWPRP | 0.0893
24 | RRIRPRPPRLPRPRPRPHLWPRP | 0.181
25 | RRIRFRPPRLPRPRPRPRKRPRP | 0.263

Row | Sequence | shrunken log2 fold change
26 | RRIRIRPPRLPRPRPRPPYAPRP | -0.274
27 | RRIRKRPPRLPRPRPRPRMEPRP | 0.0104
28 | RRIRFRPPRLPRPRPRPTGDPRP | 0.127
29 | RRIRTRPPRLPRPRPRPSWYPRP | -1.12
30 | RRIRCRPPRLPRPRPRPDTPPRP | 0.0764
31 | RRIRKRPPRLPRPRPRPDHTPRP | 0.0503
32 | RRIRWRPPRLPRPRPRPCQYPRP | 0.0863
33 | RRIRDRPPRLPRPRPRPKNCPRP | -0.15
34 | RRIRQRPPRLPRPRPRPANAPRP | -0.0699
35 | RRIRPRPPRLPRPRPRPMYYPRP | -0.631
36 | RRIRSRPPRLPRPRPRPQADPRP | -0.0788
37 | RRIRDRPPRLPRPRPRPETRPRP | 1.11
38 | RRIRPRPPRLPRPRPRPHWGPRP | 0.0167
39 | RRIRQRPPRLPRPRPRPMSPPRP | -0.11
40 | RRIRMRPPRLPRPRPRPSAFPRP | 1.26
41 | RRIRRRPPRLPRPRPRPHGQPRP | 0.194
42 | RRIRWRPPRLPRPRPRPYEIPRP | -0.402
43 | RRIRCRPPRLPRPRPRPYGHPRP | -0.0546
44 | RRIRARPPRLPRPRPRPGCFPRP | 0.96
45 | RRIRERPPRLPRPRPRPRNQPRP | -0.312
46 | RRIRNRPPRLPRPRPRPENGPRP | -0.0225
47 | RRIRYRPPRLPRPRPRPVLHPRP | -0.5
48 | RRIRERPPRLPRPRPRPSTYPRP | -0.263
49 | RRIRCRPPRLPRPRPRPQECPRP | -0.0139
50 | RRIRRRPPRLPRPRPRPYNIPRP | -0.464

Row | Sequence | shrunken log2 fold change
51 | RRIRSRPPRLPRPRPRPMLAPRP | 0.244
52 | RRIRTRPPRLPRPRPRPWPIPRP | 0.00716
53 | RRIRTRPPRLPRPRPRPFSWPRP | -0.294
54 | RRIRYRPPRLPRPRPRPTHSPRP | -0.698
55 | RRIRPRPPRLPRPRPRPEHGPRP | -0.0552
56 | RRIRRRPPRLPRPRPRPGHNPRP | 0.06
57 | RRIRTRPPRLPRPRPRPCSYPRP | -0.129
58 | RRIRFRPPRLPRPRPRPRINPRP | -0.314
59 | RRIRNRPPRLPRPRPRPGATPRP | 0.124
60 | RRIRHRPPRLPRPRPRPIIEPRP | 0.0811
61 | RRIRMRPPRLPRPRPRPLARPRP | 0.659
62 | RRIRMRPPRLPRPRPRPKVMPRP | 0.201
63 | RRIRSRPPRLPRPRPRPWQVPRP | 0.00514
64 | RRIRERPPRLPRPRPRPEIQPRP | 0.422
65 | RRIRIRPPRLPRPRPRPCDPPRP | 0.00225
66 | RRIRQRPPRLPRPRPRPTIKPRP | -0.374
67 | RRIRYRPPRLPRPRPRPHYNPRP | -1.18
68 | RRIRERPPRLPRPRPRPTLPPRP | 0.123
69 | RRIRCRPPRLPRPRPRPMTMPRP | -0.27
70 | RRIRARPPRLPRPRPRPRPLPRP | 0.707
71 | RRIRKRPPRLPRPRPRPCSCPRP | 0.018
72 | RRIRPRPPRLPRPRPRPTLFPRP | 0.2
73 | RRIRCRPPRLPRPRPRPDMLPRP | -0.283
74 | RRIRIRPPRLPRPRPRPPFHPRP | -0.513
75 | RRIRPRPPRLPRPRPRPFMYPRP | -0.0369
